In patent US20250296971A1, “GASTRIC INHIBITORY PEPTIDE RECEPTOR LIGANDS” (priority 2021, published 2025) one finds pIC50 data, which are given here for 15 molecules.

First the molecules themselves.
B1: InDOTA-Ttds-Asp-Trp-5Clw-Pro-Glu-leu-[Cys(2Lut)-Aib-Leu-Ile-AET] (peptide)
peptide: {DOTA(In)-Ttds}-DW[Trp(5-Cl)]PE[dL]C[Aib]LI[Cysteamide]
modifications: linker 7-11 via 2Lut; also: DOTA as indium complex (InDOTA)
B2: InDOTA-Ttds-Asp-Trp-5Clw-Pro-Glu-leu-[Cys(3MeBn)-Aib-Leu-Ile-AET] (peptide)
peptide: {DOTA(In)-Ttds}-DW[Trp(5-Cl)]PE[dL]C[Aib]LI[Cysteamide]
modifications: linker 7-11 via 3MeBn; also: DOTA as indium complex (InDOTA)
B3: AGLU-Glutar-Asp-Trp-5Clw-Hyp-Glu-leu-[Cys(2Lut)-Apc(ZnDOTA)-Leu-Ile-AET] (peptide)
peptide: {AGLU-Glutaryl}-DW[Trp(5-Cl)][Hyp]E[dL]C[Api](ZnDOTA)LI[Cysteamide]
modifications: linker 7-11 via Pyridine(2,6-diCH2)
B4: LuDOTA-Ttds-Asp-Trp-5Clw-Pro-Glu-leu-[Cys(3MeBn)-Thp-Leu-Ile-AET] (peptide)
peptide: {LuDOTA-Ttds}-DW[Trp(5-Cl)]PE[dL]C[Thp]LI[Cysteamide]
modifications: linker 7-11 via mXylylene
B5: InDOTA-Ttds-Asp-Trp-5Clw-Pro-Glu-leu-[Cys(3MeBn)-Thp-Leu-Ile-AET] (peptide)
peptide: {DOTA(In)-Ttds}-DW[Trp(5-Cl)]PE[dL]C[Thp]LI[Cysteamide]
modifications: linker 7-11 via mXylylene; also: indium(III) complexed in DOTA
B6: LuDOTA-Ttds-Asp-Trp-5Clw-Pro-Glu-leu-[Cys(3MeBn)-Ams-Leu-Ile-AET] (peptide)
peptide: {LuDOTA-Ttds}-DW[Trp(5-Cl)]PE[dL]C[αMeS]LI[Cysteamide]
modifications: linker 7-11 via mXylylene
B7: DOTA-Ttds-Asp-Trp-5Clw-H3p-Glu-leu-[Cys(3MeBn)-Aib-Leu-Ile-AET] (peptide)
peptide: {DOTA-Ttds}-DW[Trp(5-Cl)][Pro(3S-OH)]E[dL]C[Aib]LI[Cysteamide]
modifications: linker 7-11 via mXylylene
B8: HO-Succinyl-Trp-5Clw-Hyp-Glu-leu-[Cys(2Lut)-Thp-Leu-Ile-Cys]-lys(DOTA)-NH2 (peptide)
peptide: W[Trp(5-Cl)][Hyp]E[dL]C[Thp]LIC-{dK(DOTA)-NH2}
modifications: linker 6-10 via 2Lut; not fully specified (N-terminus)
B9: HO-Succinyl-Trp-5Clw-Hyp-Glu-leu-[Cys(2Lut)-Thp-Leu-Ile-Cys]-Lys(DOTA)-NH2 (peptide)
peptide: Suc-W[Trp(5-Cl)][Hyp]E[dL]C[Thp]LIC-{Lys(DOTA)-NH2}
modifications: linker 6-10 via Pyridine(2,6-diCH2)
B10: DOTA-Ttds-Asp-6Fw-5Clw-Pro-Glu-leu-[Cys(3MeBn)-Aib-Leu-Ile-AET] (peptide)
peptide: {DOTA-Ttds}-D[Trp(6-F)][Trp(5-Cl)]PE[dL]C[Aib]LI[Cysteamide]
modifications: linker 7-11 via mXylylene
B11: InDOTA-Ttds-Asp-Trp-5Clw-Nmg-Glu-leu-[Cys(3MeBn)-Aib-Leu-Ile-AET] (peptide)
peptide: {DOTA(In)-Ttds}-DW[Trp(5-Cl)][Sar]E[dL]C[Aib]LI[Cysteamide]
modifications: linker 7-11 via 3MeBn; also: DOTA as indium complex (InDOTA)
B12: InDOTA-Ttds-Asp-Trp-5Clw-Pro-Glu-leu-[Cys(3MeBn)-Ams-Leu-Ile-AET] (peptide)
peptide: {DOTA(In)-Ttds}-DW[Trp(5-Cl)]PE[dL]C[αMeS]LI[Cysteamide]
modifications: linker 7-11 via 3MeBn; also: DOTA as indium complex (InDOTA)
B13: DOTA-Ttds-Asp-Trp-5Clw-Pro-Glu-leu-[Cys(3MeBn)-Ams-Leu-Ile-AET] (peptide)
peptide: {DOTA-Ttds}-DW[Trp(5-Cl)]PE[dL]C[αMeS]LI[Cysteamide]
modifications: linker (positions not given here) via mXylylene; not fully specified (bridges); printed as DOTA-Ttds-Asp-Trp-5Clw-Pro-Glu-leu-[Cys(3MeBn)-Ams-Leu-Ile-AET]
B14: Ac-Asp-Trp-5Clw-Hyp-Glu-leu-[Cys(tMeBn(DOTA-AET))-Thp-Leu-Ile-Cys]-NH2 (peptide)
peptide: Ac-DW[Trp(5-Cl)][Hyp]E[dL]C[Thp]LIC-NH2
modifications: linker 7-11 via TBMB(SCH2CH2NH-DOTA)
B15: DOTA-glu(AGLU)-O2Oc-Asp-Trp-5Clw-Tap-Glu-leu-[Cys(2Lut)-Apc(AGLU-Glutar)-Leu-Ile-Cys]-APAc-glu(AGLU)-NH2 (peptide)
peptide: {DOTA-dGlu(AGLU)-AEEA}-DW[Trp(5-Cl)][Pro(trans-4-NH2)]E[dL]C[Api]([Glutaryl-NH(1-deoxy-D-glucityl)])LIC-{APAc-dGlu(AGLU)-NH2}
modifications: linker 7-11 via 2Lut; reading uncertain

*1 amine or outer side, *2 acyl side, *3 side chain or, on linkers, in order; H or OH if unused. Bridges are numbered along the chain shown (N, C = ends). Where no end group is shown, it is not given here. Side-chain parts run from the residue outwards. [ ]: non-standard residue; d: D form. The star is where a group is joined. TBMB(SCH2CH2NH-DOTA) = O=C(O)CN1CCN(CC(=O)O)CCN(CC(=O)NCCSCc2cc(C[*:1])cc(C[*:2])c2)CCN(CC(=O)O)CC1; Ttds = 1,13-diamino-4,7,10-trioxatridecan-succinamic acid, NCCCOCCOCCOCCCNC(=O)CCC(=O)*; DOTA(In) = O=C1CN2CCN3CCN(CC(=O)*)CCN(CC2)CC(=O)[O][In]([O]1)[O]C(=O)C3; NH(1-deoxy-D-glucityl) = OC[C@@H](O)[C@@H](O)[C@H](O)[C@@H](O)CN*; Pro(trans-4-NH2) = O=C([C@@H]1C[C@@H](N[*:3])CN1[*:1])[*:2]; DOTA = O=C(O)CN1CCN(CC(=O)O)CCN(CC(=O)*)CCN(CC(=O)O)CC1; 3MeBn = 3-methyl-benzylidene (derived from 1,3-xylene); 2Lut = 2,6-lutidylidene bridge between two thiols; Trp(5-Cl) = N[C@@H](Cc1c[nH]c2ccc(Cl)cc12)C(=O)O; Pyridine(2,6-diCH2) = c1cc(C[*:1])nc(C[*:2])c1; Trp(6-F) = N[C@@H](Cc1c[nH]c2cc(F)ccc12)C(=O)O; APAc = 4-amino-1-carboxymethylpiperidine; Pro(3S-OH) = O=C(O)[C@H]1NCC[C@@H]1O; mXylylene = c1cc(C[*:1])cc(C[*:2])c1; LuDOTA = DOTA Lutetium(III) complex; Glutaryl = O=C(CCCC(=O)[*:2])[*:1]; AGLU = 1-amino-1-deoxy-D-glucitol; Hyp = O=C(O)[C@@H]1C[C@@H](O)CN1; Cysteamide = C(CS[*:3])N[*:1]; dGlu(AGLU) = not defined here; Suc = O=C(CCC(=O)[*:2])[*:1]; ZnDOTA = DOTA zinc complex; αMeS = C[C@](N)(CO)C(=O)O; Api = NC1(C(=O)O)CCNCC1; Thp = NC1(C(=O)O)CCOCC1; AEEA = NCCOCCOCC(=O)O; Aib = CC(C)(N)C(=O)O; Sar = CNCC(=O)O Some results are limits rather than exact numbers.

This assay deals with human Gastric Inhibitory Peptide Receptor (human) (UniProt P48546). Description: FACS competition with GIP-057 on CHO-K1-hGIPR cells; pIC50 category A: >8.0.
B1: the pIC50 was more than 8 pic50. Then B2, with more than 8 pic50; and B3, with more than 8 pic50; and B4, with more than 8 pic50. Then B5, with more than 8 pic50; and B6, with more than 8 pic50. As for B7, the figure is more than 8 pic50; as for B8, more than 8 pic50.

B9 had a pIC50 of more than 8 pic50. Then B10, with more than 8 pic50; and B11, with more than 8 pic50; and B12, with more than 8 pic50. In turn, B13 displayed a pIC50 of more than 8 pic50. Then B14, with more than 8 pic50; and B15, with more than 8 pic50.
